Data on six molecules can be found in patent publication US20100048462A1, “TRUNCATED PTH PEPTIDES WITH A CYCLIC CONFORMATION” (Zealand Pharma A/S, priority 2006, published 2010).

Test in all cases: cell-based or functional assay
The target in assay [1] is PTH receptor 1 on MC3T3-E1 cells (murine) (UniProt P41593).
The target in another assay is Saos-2 PTH1R (UniProt Q03431).
For a further assay, the target named is CYP2D6 (Homo sapiens, UniProt P10635).

Where two headings read alike, the source gives them in different places. Bridge positions count the residues as written; N and C are the ends. Square brackets hold non-standard residues; d marks the D form. hArg = N=C(N)NCCCC[C@H](N)C(=O)O; Ac5c = NC1(C(=O)O)CCCC1; Dab = NCC[C@H](N)C(=O)O; Dap = NC[C@H](N)C(=O)O; Aib = CC(C)(N)C(=O)O

Saos-2 PTH1R, sequence (Q03431 27-593 limits assumed): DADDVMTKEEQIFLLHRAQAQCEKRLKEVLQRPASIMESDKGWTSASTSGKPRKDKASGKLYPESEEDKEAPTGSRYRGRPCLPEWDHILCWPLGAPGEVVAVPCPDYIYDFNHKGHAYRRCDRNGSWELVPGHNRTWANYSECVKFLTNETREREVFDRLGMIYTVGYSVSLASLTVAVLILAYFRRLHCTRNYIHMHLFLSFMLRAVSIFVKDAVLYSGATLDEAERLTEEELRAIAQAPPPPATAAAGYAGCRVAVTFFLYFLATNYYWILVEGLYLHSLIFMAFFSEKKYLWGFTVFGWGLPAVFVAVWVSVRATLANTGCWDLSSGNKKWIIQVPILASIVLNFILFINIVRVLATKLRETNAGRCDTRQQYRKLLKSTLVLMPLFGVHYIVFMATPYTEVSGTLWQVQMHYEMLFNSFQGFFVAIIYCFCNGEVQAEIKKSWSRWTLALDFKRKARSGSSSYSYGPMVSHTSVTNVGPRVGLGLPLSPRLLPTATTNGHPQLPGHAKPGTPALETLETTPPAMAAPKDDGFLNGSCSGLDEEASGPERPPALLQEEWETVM
PTH receptor 1 on MC3T3-E1 cells (murine), sequence (P41593 27-591): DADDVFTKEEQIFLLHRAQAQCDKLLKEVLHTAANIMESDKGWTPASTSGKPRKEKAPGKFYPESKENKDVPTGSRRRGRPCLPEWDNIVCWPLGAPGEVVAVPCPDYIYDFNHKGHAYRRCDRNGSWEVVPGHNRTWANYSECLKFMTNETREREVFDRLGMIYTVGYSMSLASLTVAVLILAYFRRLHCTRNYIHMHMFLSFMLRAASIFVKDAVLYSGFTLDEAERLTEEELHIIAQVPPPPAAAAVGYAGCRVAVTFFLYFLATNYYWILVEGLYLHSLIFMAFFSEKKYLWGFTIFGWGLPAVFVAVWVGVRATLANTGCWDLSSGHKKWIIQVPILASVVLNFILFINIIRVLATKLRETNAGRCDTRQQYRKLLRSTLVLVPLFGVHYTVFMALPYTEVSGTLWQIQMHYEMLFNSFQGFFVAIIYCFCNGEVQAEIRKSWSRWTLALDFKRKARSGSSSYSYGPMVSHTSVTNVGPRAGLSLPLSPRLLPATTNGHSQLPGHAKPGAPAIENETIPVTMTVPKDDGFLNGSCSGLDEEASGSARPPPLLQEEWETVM
CYP2D6, sequence (P10635 whole entry): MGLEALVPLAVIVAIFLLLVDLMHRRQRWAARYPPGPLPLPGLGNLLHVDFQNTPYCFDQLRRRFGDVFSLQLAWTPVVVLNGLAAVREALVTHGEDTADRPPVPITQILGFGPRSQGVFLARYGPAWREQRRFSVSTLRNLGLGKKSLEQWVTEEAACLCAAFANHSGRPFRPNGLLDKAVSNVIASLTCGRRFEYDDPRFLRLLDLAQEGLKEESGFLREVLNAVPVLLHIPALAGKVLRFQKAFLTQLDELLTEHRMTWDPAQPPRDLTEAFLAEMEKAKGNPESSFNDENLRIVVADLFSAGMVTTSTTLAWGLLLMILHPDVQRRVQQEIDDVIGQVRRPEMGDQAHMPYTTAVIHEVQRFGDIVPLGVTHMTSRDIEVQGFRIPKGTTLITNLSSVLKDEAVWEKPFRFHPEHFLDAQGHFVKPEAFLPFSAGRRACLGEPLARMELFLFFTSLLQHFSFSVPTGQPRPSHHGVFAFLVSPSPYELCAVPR

B1: H-Ac5c-Val-Aib-Glu-Ile-Gln-Leu-Met-His-Gln-Har-Ala-Lys-Trp-Leu-Asn-Asp-NH2 (peptide)
chain: H-[Ac5c]V[Aib]EIQLMHQ[hArg]AKWLND-NH2
SMILES: CC[C@H](C)[C@H](NC(=O)[C@H](CCC(=O)O)NC(=O)C(C)(C)NC(=O)[C@@H](NC(=O)C1(N)CCCC1)C(C)C)C(=O)N[C@@H](CCC(N)=O)C(=O)N[C@@H](CC(C)C)C(=O)N[C@@H](CCSC)C(=O)N[C@@H](Cc1c[nH]cn1)C(=O)N[C@@H](CCC(N)=O)C(=O)N[C@@H](CCCCNC(=N)N)C(=O)N[C@@H](C)C(=O)N[C@@H](CCCCN)C(=O)N[C@@H](Cc1c[nH]c2ccccc12)C(=O)N[C@@H](CC(C)C)C(=O)N[C@@H](CC(N)=O)C(=O)N[C@@H](CC(=O)O)C(N)=O
As for B1, in assay [1], the EC50, cAMP in an osteoblast-like cell line (MC3T3-E1) was 1 nM; the Emax, cAMP efficacy assay in MC3T3-E1 cells is 4.9 pmol/well; the agonist potency relative to SEQ ID NO: 2, cAMP in MC3T3-E1 cells was determined as 6 fold weaker; the pEC50, cAMP efficacy assay in MC3T3-E1 cells is 9 -log(M). In assay [1] (record 2), the Emax, cAMP efficacy assay in MC3T3-E1 cells was 5.7 pmol/well and the pEC50, cAMP efficacy assay in MC3T3-E1 cells is 8.2 -log(M). Further, in the assay with Saos-2 PTH1R, the Emax, cAMP efficacy assay in Saos-2 cells (2A, acetate salt) (relative to control (SEQ ID NO: 32)) amounted to 0.99; the Emax, cAMP efficacy assay in Saos-2 cells (2C, chloride salt) (relative to control (SEQ ID NO: 32)) was found to be 0.94; the Emax, cAMP efficacy assay in Saos-2 cells (2T, trifluoroacetate salt) (relative to control (SEQ ID NO: 32)) amounted to 0.7; the Emax, cAMP efficacy assay in Saos-2 cells (42T, trifluoroacetate salt) (relative to control (SEQ ID NO: 32)) was found to be 1.03. Further, in the assay with Saos-2 PTH1R, the pEC50, cAMP efficacy assay in Saos-2 cells (2A, acetate salt) is 8.2 -log(M); the pEC50, cAMP efficacy assay in Saos-2 cells (2C, chloride salt) was 8.18 -log(M); the pEC50, cAMP efficacy assay in Saos-2 cells (2T, trifluoroacetate salt) was 8.18 -log(M); the pEC50, cAMP efficacy assay in Saos-2 cells (42T, trifluoroacetate salt) was 7.68 -log(M). The CYP2D6 activity (% of vehicle), dextrorphan formation rate in human liver microsomes, 10 µM peptide with CYP2D6 is 29 % of vehicle. Besides, the CYP2D6 activity (% of vehicle), dextrorphan formation rate in human liver microsomes, 10 µM peptide in the assay with CYP2D6 (record 2) was 67 % of vehicle.

B2: H-Ac5c-Val-Aib-Glu-Ile-Gln-Leu-Leu-His-Gln-Har-Ala-Dpr( )-Trp-Leu-Asn-Asp( )-NH2 (peptide)
chain: H-[Ac5c]V[Aib]EIQLLHQ[hArg]A[Dap]WLND-NH2
modifications: lactam 13-17
SMILES: CC[C@H](C)[C@H](NC(=O)[C@H](CCC(=O)O)NC(=O)C(C)(C)NC(=O)[C@@H](NC(=O)C1(N)CCCC1)C(C)C)C(=O)N[C@@H](CCC(N)=O)C(=O)N[C@@H](CC(C)C)C(=O)N[C@@H](CC(C)C)C(=O)N[C@@H](Cc1c[nH]cn1)C(=O)N[C@@H](CCC(N)=O)C(=O)N[C@@H](CCCCNC(=N)N)C(=O)N[C@@H](C)C(=O)N[C@H]1CNC(=O)C[C@@H](C(N)=O)NC(=O)[C@H](CC(N)=O)NC(=O)[C@H](CC(C)C)NC(=O)[C@H](Cc2c[nH]c3ccccc23)NC1=O
B2: in the assay with Saos-2 PTH1R, the Emax, cAMP efficacy assay in Saos-2 cells (17T, trifluoroacetate salt) (relative to control (SEQ ID NO: 32)) was 1.25 and the pEC50, cAMP efficacy assay in Saos-2 cells (17T, trifluoroacetate salt) was 6.11 -log(M). In addition, the CYP2D6 activity (% of vehicle), dextrorphan formation rate in human liver microsomes, 10 µM peptide in the assay with CYP2D6 is 101 % of vehicle.

B3: H-Ac5c-Val-Aib-Glu-Ile-Gln-Leu-Met-His-Gln-Har-Ala-Lys( )-Trp-Leu-Asn-Glu( )-NH2 (peptide)
chain: H-[Ac5c]V[Aib]EIQLMHQ[hArg]AKWLNE-NH2
modifications: lactam 13-17
SMILES: CC[C@H](C)[C@H](NC(=O)[C@H](CCC(=O)O)NC(=O)C(C)(C)NC(=O)[C@@H](NC(=O)C1(N)CCCC1)C(C)C)C(=O)N[C@@H](CCC(N)=O)C(=O)N[C@@H](CC(C)C)C(=O)N[C@@H](CCSC)C(=O)N[C@@H](Cc1c[nH]cn1)C(=O)N[C@@H](CCC(N)=O)C(=O)N[C@@H](CCCCNC(=N)N)C(=O)N[C@@H](C)C(=O)N[C@H]1CCCCNC(=O)CC[C@@H](C(N)=O)NC(=O)[C@H](CC(N)=O)NC(=O)[C@H](CC(C)C)NC(=O)[C@H](Cc2c[nH]c3ccccc23)NC1=O
Turning to B3, in the assay with Saos-2 PTH1R, the Emax, cAMP efficacy assay in Saos-2 cells (9T, trifluoroacetate salt) (relative to control (SEQ ID NO: 32)) worked out at 1.03 and the pEC50, cAMP efficacy assay in Saos-2 cells (9T, trifluoroacetate salt) is 7.85 -log(M). Besides, the CYP2D6 activity (% of vehicle), dextrorphan formation rate in human liver microsomes, 10 µM peptide in the assay with CYP2D6 is 85 % of vehicle.

B4: H-Ac5c-Val-Aib-Glu-Ile-Gln-Leu-Leu-His-Gln-Har-Ala-Dab( )-Trp-Leu-Asn-Asp( )-NH2 (peptide)
chain: H-[Ac5c]V[Aib]EIQLLHQ[hArg]A[Dab]WLND-NH2
modifications: lactam 13-17
SMILES: CC[C@H](C)[C@H](NC(=O)[C@H](CCC(=O)O)NC(=O)C(C)(C)NC(=O)[C@@H](NC(=O)C1(N)CCCC1)C(C)C)C(=O)N[C@@H](CCC(N)=O)C(=O)N[C@@H](CC(C)C)C(=O)N[C@@H](CC(C)C)C(=O)N[C@@H](Cc1c[nH]cn1)C(=O)N[C@@H](CCC(N)=O)C(=O)N[C@@H](CCCCNC(=N)N)C(=O)N[C@@H](C)C(=O)N[C@H]1CCNC(=O)C[C@@H](C(N)=O)NC(=O)[C@H](CC(N)=O)NC(=O)[C@H](CC(C)C)NC(=O)[C@H](Cc2c[nH]c3ccccc23)NC1=O
Take B4: in the assay with Saos-2 PTH1R, the Emax, cAMP efficacy assay in Saos-2 cells (41T, trifluoroacetate salt) (relative to control (SEQ ID NO: 32)) was 0.99 and the pEC50, cAMP efficacy assay in Saos-2 cells (41T, trifluoroacetate salt) was 7.19 -log(M). In the assay with CYP2D6, the CYP2D6 activity (% of vehicle), dextrorphan formation rate in human liver microsomes, 10 µM peptide is 82 % of vehicle.

B5: H-Ac5c-Val-Aib-Glu-Ile-Gln-Leu-Met-His-Gln-Har-Ala-Cys( )-Trp-Leu-Asn-Cys( )-NH2 (peptide)
chain: H-[Ac5c]V[Aib]EIQLMHQ[hArg]ACWLNC-NH2
modifications: disulfide 13-17
SMILES: CC[C@H](C)[C@H](NC(=O)[C@H](CCC(=O)O)NC(=O)C(C)(C)NC(=O)[C@@H](NC(=O)C1(N)CCCC1)C(C)C)C(=O)N[C@@H](CCC(N)=O)C(=O)N[C@@H](CC(C)C)C(=O)N[C@@H](CCSC)C(=O)N[C@@H](Cc1c[nH]cn1)C(=O)N[C@@H](CCC(N)=O)C(=O)N[C@@H](CCCCNC(=N)N)C(=O)N[C@@H](C)C(=O)N[C@H]1CSSC[C@@H](C(N)=O)NC(=O)[C@H](CC(N)=O)NC(=O)[C@H](CC(C)C)NC(=O)[C@H](Cc2c[nH]c3ccccc23)NC1=O
Regarding B5, in the assay with Saos-2 PTH1R, the Emax, cAMP efficacy assay in Saos-2 cells (7T, trifluoroacetate salt) (relative to control (SEQ ID NO: 32)) stood at 1.2 and the pEC50, cAMP efficacy assay in Saos-2 cells (7T, trifluoroacetate salt) is 7.3 -log(M). The CYP2D6 activity (% of vehicle), dextrorphan formation rate in human liver microsomes, 10 µM peptide with CYP2D6 is 85 % of vehicle.

B6: H-Ac5c-Val-Aib-Glu-Ile-Gln-Leu-Val-His-Gln-Har-Ala-Lys( )-Trp-Leu-Asn-Asp( )-NH2 (peptide)
chain: H-[Ac5c]V[Aib]EIQLVHQ[hArg]AKWLND-NH2
modifications: lactam 13-17
SMILES: CC[C@H](C)[C@H](NC(=O)[C@H](CCC(=O)O)NC(=O)C(C)(C)NC(=O)[C@@H](NC(=O)C1(N)CCCC1)C(C)C)C(=O)N[C@@H](CCC(N)=O)C(=O)N[C@@H](CC(C)C)C(=O)N[C@H](C(=O)N[C@@H](Cc1c[nH]cn1)C(=O)N[C@@H](CCC(N)=O)C(=O)N[C@@H](CCCCNC(=N)N)C(=O)N[C@@H](C)C(=O)N[C@H]1CCCCNC(=O)C[C@@H](C(N)=O)NC(=O)[C@H](CC(N)=O)NC(=O)[C@H](CC(C)C)NC(=O)[C@H](Cc2c[nH]c3ccccc23)NC1=O)C(C)C
With B6, in the assay with Saos-2 PTH1R, the Emax, cAMP efficacy assay in Saos-2 cells (21T, trifluoroacetate salt) (relative to control (SEQ ID NO: 32)) came out at 1.4 and the pEC50, cAMP efficacy assay in Saos-2 cells (21T, trifluoroacetate salt) was 6.82 -log(M). In addition, the CYP2D6 activity (% of vehicle), dextrorphan formation rate in human liver microsomes, 10 µM peptide with CYP2D6 was 92 % of vehicle.
